Source: US20190111032A1 (GEORGIA STATE UNIVERSITY RESEARCH FOUNDATION, published 2019)

Target: the molecule itself
Experiment: size exclusion chromatography and non-reducing SDS-PAGE
Protocol: hCaSR-ECD (from residue Tyr²⁰ to Phe⁶¹²) (FIG. 1) was expressed in suspension culture of HEK293S (GnTI-) cells and purified from the culture medium by Ni²⁺-NTA chromatography as previously described. To deglycosylate the purified protein, hCaSR-ECD was incubated with recombinant endoglycosidase F1 (Endo F1) at a 1:100 mass ratio of Endo F1 to hCaSR-ECD²⁶ overnight at 4° C. in 10 mM Tris buffer, pH 7.4. Further separation of hCaSR-ECD from Endo F1 was achieved by size exclusion chromatography (SEC) in 10 mM HEPES (pH 7.3) buffer. hCaSR-ECD forms a homodimer, as determined by the elution volume observed in SEC.

B1: extracellular domain of the human calcium-sensing receptor (hCaSR-ECD), residues Tyr20 to Phe612 (receptor, UniProt P41180 20-612, looked up)
chain: YGPDQRAQKKGDIILGGLFPIHFGVAAKDQDLKSRPESVECIRYNFRGFRWLQAMIFAIEEINSSPALLPNLTLGYRIFDTCNTVSKALEATLSFVAQNKIDSLNLDEFCNCSEHIPSTIAVVGATGSGVSTAVANLLGLFYIPQVSYASSSRLLSNKNQFKSFLRTIPNDEHQATAMADIIEYFRWNWVGTIAADDDYGRPGIEKFREEAEERDICIDFSELISQYSDEEEIQHVVEVIQNSTAKVIVVFSSGPDLEPLIKEIVRRNITGKIWLASEAWASSSLIAMPQYFHVVGGTIGFALKAGQIPGFREFLKKVHPRKSVHNGFAKEFWEETFNCHLQEGAKGPLPVDTFLRGHEESGDRFSNSSTAFRPLCTGDENISSVETPYIDYTHLRISYNVYLAVYSIAHALQDIYTCLPGRGLFTNGSCADIKKVEAWQVLKHLRHLNFTNNMGEQVTFDECGDLVGNYSIINWHLSPEDGSIVFKEVGYYNVYAKKGERLFINEEKILWSGFSREVPFSNCSRDCLAGTRKGIIEGEPTCCFECVECPDGEYSDETDASACNKCPDDFWSNENHTSCIAKEIEFLSWTEPF
modifications: N-glycans trimmed with endoglycosidase F1 before SEC and crystallization (expressed in HEK293S GnTI- cells)
notes: range 20-612; This entry is one protomer; also called ECD of CaSR
  binding result: binds
